Data taken from PMC5687611.

Assays:
[1] = target: L3B3-hPD-L1 phage clone (displayed on M13 phage) (human) (UniProt Q9NZQ7); test: ELISA; inhibition phage ELISA: phage displaying hPD-L1 variants incubated with 1.6 µM non-biotinylated soluble hPD-1 for 1 h before adding to plates with captured biotinylated hPD-1
[2] = target: L3C7-hPD-L1 phage clone (displayed on M13 phage) (human) (UniProt Q9NZQ7); test: as above

soluble non-biotinylated hPD-1 (residues 33-150, C93S) (from UniProt Q15116 33-150) (domain or fragment)
inhibition rate at 1.6 µM soluble hPD-1 [1]: 86.7%
inhibition rate at 1.6 µM soluble hPD-1 [2]: 82.6%
